{
  "source": "paper PMC3764193",
  "biological_target": "T1, recombinant (His)6-Bwc2 (Cryptococcus neoformans var. neoformans JEC21) (UniProt Q5EGQ1)",
  "T1 sequence": "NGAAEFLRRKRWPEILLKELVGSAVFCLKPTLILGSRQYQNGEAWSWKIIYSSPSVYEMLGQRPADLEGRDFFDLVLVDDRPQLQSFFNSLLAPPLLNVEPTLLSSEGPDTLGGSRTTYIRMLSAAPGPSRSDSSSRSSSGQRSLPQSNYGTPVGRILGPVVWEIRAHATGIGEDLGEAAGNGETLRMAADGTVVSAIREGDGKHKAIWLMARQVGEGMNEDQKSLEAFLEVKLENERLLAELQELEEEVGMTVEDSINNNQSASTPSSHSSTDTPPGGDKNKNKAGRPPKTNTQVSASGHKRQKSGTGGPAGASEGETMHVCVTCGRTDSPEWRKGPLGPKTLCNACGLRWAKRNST",
  "assay": "EMSA",
  "details": "1X EMSA buffer (from 5X: 20% w/v glycerol, 5 mM MgCl2, 250 mM NaCl, 2.5 mM EDTA pH 8, 10 mM DTT, +/-12 uM ZnSO4) + 1X phosphate buffer, 20 ul; 20 min …",
  "data": [
    {"sequence": "GTAGTCACCAGTCATTCAGTTACTCTGTTATGACGTGACGTCGTTACTCTCGATCTTCATCTCGATCTCCACCTTGCAAGCTTTTCAGGCTTTTTACTCATCGTTCACTATATAATACGATACCACACTTGACATTTCTTCGGTATGTATAAAACGCAGTCGCGAGTACTTCCTTCTGCTTTTGCAACAAACACGTCTGCATTTGTTGCCAAGTATTTATATCAGCATTAAGTACATGAGGTTC (double strand) [P1 (UVE1 promoter)]", "values": [
      {"measurement": "binding", "value": "binds"}
    ]}
  ]
}
